Laboratory results from patent publication US20250320252A1 (Scripps Research, published 2025).
Bridge positions count the residues as written; N and C are the ends. Square brackets hold non-standard residues; d marks the D form. Ends that are not written are not given here. Nle = CCCC[C@H](N)C(=O)O; L5A = not defined here; K4 = not defined here; K5 = not defined here; Aib = CC(C)(N)C(=O)O

T1: human GIP receptor (human, UniProt P48546 22-466)
T1 sequence (looked up): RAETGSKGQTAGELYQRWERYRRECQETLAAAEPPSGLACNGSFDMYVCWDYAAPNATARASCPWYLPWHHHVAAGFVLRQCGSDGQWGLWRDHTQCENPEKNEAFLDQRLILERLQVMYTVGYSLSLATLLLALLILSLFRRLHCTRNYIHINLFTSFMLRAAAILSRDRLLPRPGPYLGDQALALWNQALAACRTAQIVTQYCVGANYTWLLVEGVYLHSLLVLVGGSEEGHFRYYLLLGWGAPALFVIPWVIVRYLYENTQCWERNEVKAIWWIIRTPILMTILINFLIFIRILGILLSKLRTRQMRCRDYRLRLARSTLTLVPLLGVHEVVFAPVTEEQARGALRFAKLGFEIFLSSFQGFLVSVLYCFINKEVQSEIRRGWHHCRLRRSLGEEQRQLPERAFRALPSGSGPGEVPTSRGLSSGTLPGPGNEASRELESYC


Molecular target: T2, human GLP-1 receptor (human, UniProt P43220 24-463)
Experiment: cell-based or functional assay

| Binder | EC50 [nM] of receptor-mediated cAMP synthesis [nM] |
| --- | --- |
| Y[Aib]EGTFTSDYSIYKDKQAA[Aib]KFVNWLLAGGPSSGAPPPS-NH2 (bridge 14-21 via K5; reading uncertain) [mCLZ715] | 0.02 |
| H-Y[Aib]EGTFHSDYDIYKDKQAA[Aib]KFVQWLLAGGPSSGAPPPS-NH2 (bridge 14-21 via K4; reading uncertain) [ZA-41 - K4] | 13.8 |
| H-Y[Aib]EGTFHSDYDIYKDKQAA[Nle]KFVAWLLAGGPSSGAPPPS-NH2 (linker 14-21 via K4; not fully specified; reading uncertain) [ZA-42 - K4] | 18.8 |
| H-Y[Aib]EGTFT[dS]DY[dS]IYKDKQAA[Nle]KFVAWLLAGGPSSGAPPPS-NH2 (linker 14-21 via K4; not fully specified; reading uncertain) [ZA-43 - K4] | 1.32 |
| H-Y[Aib]EGTFHSDYDIYKDKQAA[Aib]KFVQWLLAGGPSSGAPPPS-NH2 (bridge 14-21 via K5; reading uncertain) [ZA-41 - K5] | 83.9 |
| H-Y[Aib]EGTFHSDYDIYKDKQAA[Nle]KFVAWLLAGGPSSGAPPPS-NH2 (linker 14-21 via K5; not fully specified; reading uncertain) [ZA-42 - K5] | ~13700 |
| H-Y[Aib]EGTFT[dS]DY[dS]IYKDKQAA[Nle]KFVAWLLAGGPSSGAPPPS-NH2 (linker 14-21 via K5; not fully specified; reading uncertain) [ZA-43 - K5] | 3.74 |

Molecular target: T1, human GIP receptor
Experiment: cell-based or functional assay

| Binder | EC50 [nM] of receptor-mediated cAMP synthesis [nM] |
| --- | --- |
| Y[Aib]EGTFTSDYSIYKDKQAA[Aib]KFVNWLLAGGPSSGAPPPS-NH2 (bridge 14-21 via K5; reading uncertain) [mCLZ715] | 0.02 |
| H-Y[Aib]EGTFHSDYDIYKDKQAA[Aib]KFVQWLLAGGPSSGAPPPS-NH2 (bridge 14-21 via K4; reading uncertain) [ZA-41 - K4] | 5.31 |
| H-Y[Aib]EGTFHSDYDIYKDKQAA[Nle]KFVAWLLAGGPSSGAPPPS-NH2 (linker 14-21 via K4; not fully specified; reading uncertain) [ZA-42 - K4] | 20.4 |
| H-Y[Aib]EGTFT[dS]DY[dS]IYKDKQAA[Nle]KFVAWLLAGGPSSGAPPPS-NH2 (linker 14-21 via K4; not fully specified; reading uncertain) [ZA-43 - K4] | 11.3 |
| H-Y[Aib]EGTFHSDYDIYKDKQAA[Aib]KFVQWLLAGGPSSGAPPPS-NH2 (bridge 14-21 via K5; reading uncertain) [ZA-41 - K5] | 12.6 |
| H-Y[Aib]EGTFHSDYDIYKDKQAA[Nle]KFVAWLLAGGPSSGAPPPS-NH2 (linker 14-21 via K5; not fully specified; reading uncertain) [ZA-42 - K5] | 303 |
| H-Y[Aib]EGTFT[dS]DY[dS]IYKDKQAA[Nle]KFVAWLLAGGPSSGAPPPS-NH2 (linker 14-21 via K5; not fully specified; reading uncertain) [ZA-43 - K5] | 15.7 |

Molecular target: T2, human GLP-1 receptor
Experiment: cell-based or functional assay
Remark: another data set of the same source

| Binder | EC50 [nM] of receptor-mediated cAMP synthesis [nM] |
| --- | --- |
| Y[Aib]EGTFTSDYSIYCDKQAA[Aib]CFVNWLIAGGPSSGAPPPS-NH2 (linker 14-21 via L5A; not fully specified; reading uncertain) [27I, C(14-21)-L5A] | 0.04 |

Molecular target: T1, human GIP receptor
Experiment: cell-based or functional assay
Remark: another data set of the same source

| Binder | EC50 [nM] of receptor-mediated cAMP synthesis [nM] |
| --- | --- |
| Y[Aib]EGTFTSDYSIYCDKQAA[Aib]CFVNWLIAGGPSSGAPPPS-NH2 (linker 14-21 via L5A; not fully specified; reading uncertain) [27I, C(14-21)-L5A] | 0.03 |
